Assay results: article PMC12135372, “Structural and biochemical characterization of the 3′-5′ tRNA splicing ligases”
Residue numbers refer to the chain shown, from its start.

T1: Tb-RtcB S199C (Thermococcus barophilus, UniProt F0LKB8 1-479, S199C)
T1 sequence: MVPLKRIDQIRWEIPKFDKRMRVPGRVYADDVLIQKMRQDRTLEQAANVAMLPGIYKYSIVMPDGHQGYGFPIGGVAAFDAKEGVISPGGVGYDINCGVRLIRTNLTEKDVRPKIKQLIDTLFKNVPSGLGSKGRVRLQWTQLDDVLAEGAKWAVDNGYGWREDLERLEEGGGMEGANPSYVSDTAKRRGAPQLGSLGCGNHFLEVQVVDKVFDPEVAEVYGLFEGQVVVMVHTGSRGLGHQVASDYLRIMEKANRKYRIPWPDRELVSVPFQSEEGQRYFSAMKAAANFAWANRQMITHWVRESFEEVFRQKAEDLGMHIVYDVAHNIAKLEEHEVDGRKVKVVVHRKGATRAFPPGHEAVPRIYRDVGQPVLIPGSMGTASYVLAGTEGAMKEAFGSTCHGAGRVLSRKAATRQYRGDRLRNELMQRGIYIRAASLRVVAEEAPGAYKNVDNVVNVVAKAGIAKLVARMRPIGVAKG

T2: Tb-RtcB L130C (Thermococcus barophilus, UniProt F0LKB8 1-479, L130C)
T2 sequence: T1 sequence with L130C, C199S

T3: Tb-RtcB R237C (Thermococcus barophilus, UniProt F0LKB8 1-479, R237C)
T3 sequence: T1 sequence with C199S, R237C

B1: RNA-1 (ssRNA)
RNA: AAACACCGGUGGAGG
modifications: cystamine on phosphate between nt 2 and 3; 2'-F at nt 2; 3'-phosphate
B2: RNA-2 (ssRNA)
RNA: AAACACCGGUGGAGG
modifications: cystamine on phosphate between nt 1 and 2; 2'-F at nt 1; 3'-phosphate

Experiments:
Experiment in all cases: disulfide (cystamine) crosslinking, SDS-PAGE; 2.5 mM MnCl2; MST: 25 mM Hepes pH 7.5, 150 mM NaCl, 1 mM DTT, with or without 2 mM GTP and 2 mM MnCl2, 20 nM Cy5-tRNA, temperature not stated; crosslinking: 50 mM Tris pH 7.5, 25 mM NaCl, 25 mM KCl, 30% glycerol, 2.5 mM MnCl2, 0-1 mM DTT, 37 C 2 h then 24 C 14 h
Settings in all cases: protein: recombinant; tags: His6-SUMO removed; single strand
Tb-RtcB S199C = target: T1, Tb-RtcB S199C
Tb-RtcB L130C = target: T2, Tb-RtcB L130C
Tb-RtcB R237C = target: T3, Tb-RtcB R237C

Row | Binder | binding result (Tb-RtcB S199C) | binding result (Tb-RtcB L130C) | binding result (Tb-RtcB R237C)
1 | B1 | binds | binds | binds
2 | B2 | – | – | binds
